B1: scFv; the commonest letter at each place (parent)
chain 1: EVKLDETGGGLVQPGRPMKLSCVASGFTFSDYWMNWVRQSPEKGLEWVAQIRNKPYNYETYYSDSVKGRFTISRDDSKSSVYLQMNNLRVEDMGIYYCTGSYYGMDYWGQGTSVTVS
chain 2: DVVMTQTPLSLPVSLGDQASISCRSSQSLVHSNGNTYLRWYLQKPGQSPKVLIYKVSNRFSGVPDRFSGSGSGTDFTLKISRVEAEDLGVYFCSQSTHVPWTFGGGTKLEIK

The data set “fluorescein” covers variants of B1. Nature of the data set: Kd (Tite-Seq). Particulars: with fluorescein; format: scFv 4-4-20, heavy + light.
Variants of B1 are the subject of data set [1]. Nature of the data set: yeast surface expression (ratio to wild type); higher = more expressed. Particulars: format: scFv 4-4-20, heavy + light.

As to chain 1 S30K N35G, the Kd with fluorescein amounted to 16.2 nM. Besides, the yeast surface expression in data set [1] was determined as 1.03.
As for chain 1 S101I M105V, the Kd with fluorescein was not below 10000 nM. Besides, the yeast surface expression in data set [1] amounted to 0.468.
As for chain 1 S101H M105V, the Kd with fluorescein was not below 10000 nM. For the same variant, the yeast surface expression in data set [1] came to 0.592.
Regarding chain 1 G104E Y107A, in the data set with fluorescein, the Kd was not below 10000 nM. Besides, in data set [1], the yeast surface expression came to 0.736.
On to chain 1 Y103Q W108A, for which the Kd with fluorescein is 712 nM. The yeast surface expression in data set [1] worked out at 0.644.
For chain 1 T28I Y32C, in the data set with fluorescein, the Kd was determined as 2230 nM. In addition, the yeast surface expression in data set [1] worked out at 0.946.
In the case of chain 1 M34G W36M, the Kd with fluorescein is not below 10000 nM. Besides, the yeast surface expression in data set [1] stood at 1.94.
Regarding chain 1 D31S W36I, the Kd in the data set with fluorescein is not below 10000 nM. Also, the yeast surface expression in data set [1] is 0.724.
Consider chain 1 Y32E W36N, for which, in the data set with fluorescein, the dissociation constant (Kd) is not below 10000 nM. Also, the yeast surface expression in data set [1] amounted to 1.09.
chain 1 W108M G109E: the Kd with fluorescein amounted to 94.4 nM. Moreover, in data set [1], the yeast surface expression was 0.408.
For chain 1 Y107P W108A, in the data set with fluorescein, the Kd was not below 10000 nM. In addition, the yeast surface expression in data set [1] turned out to be 0.455.
The like results for chain 1 S30K Y32E were, in that order, not below 10000 nM and 0.857.
With chain 1 M105A Y107M, the Kd with fluorescein was not below 10000 nM. Besides, the yeast surface expression in data set [1] worked out at 0.661.
On to chain 1 D106F G109A, for which the Kd with fluorescein was not below 10000 nM. Besides, the yeast surface expression in data set [1] turned out to be 0.112.
On to chain 1 T28Q F29Q V37S, for which the Kd in the data set with fluorescein was found to be 62.4 nM. For the same variant, the yeast surface expression in data set [1] is 0.421.
Regarding chain 1 S101Q M105V, in the data set with fluorescein, the Kd is not below 10000 nM. In addition, in data set [1], the yeast surface expression turned out to be 0.835.
For chain 1 T28M S30L, the Kd with fluorescein came to 10.7 nM. In addition, the yeast surface expression in data set [1] turned out to be 0.725.
On to chain 1 F29M Y32M, for which the Kd in the data set with fluorescein amounted to 17.1 nM. Further, in data set [1], the yeast surface expression turned out to be 1.21.
For the variant chain 1 Y32G M34P, in the data set with fluorescein, the Kd was not below 10000 nM. Also, in data set [1], the yeast surface expression turned out to be 0.545.
Consider chain 1 T28R Y32G, for which the Kd with fluorescein was 13.2 nM. In data set [1], the yeast surface expression amounted to 0.959.
Turning to chain 1 Y32E N35G, the Kd with fluorescein is not below 10000 nM. In data set [1], the yeast surface expression is 1.
As to chain 1 G104Q D106K, the Kd with fluorescein is not below 10000 nM. Besides, in data set [1], the yeast surface expression was 0.274.
As for chain 1 W36M V37P, the Kd with fluorescein is not below 10000 nM. Moreover, the yeast surface expression in data set [1] is 0.36.
Regarding chain 1 W36H V37E, in the data set with fluorescein, the Kd is not below 10000 nM. Moreover, the yeast surface expression in data set [1] is 0.267.
On to chain 1 G100I S101Y Y107A, for which the Kd with fluorescein was not below 10000 nM. For the same variant, in data set [1], the yeast surface expression was found to be 0.466.
chain 1 G104L: the Kd with fluorescein is not below 10000 nM. In addition, the yeast surface expression in data set [1] was 0.556.
Regarding chain 1 G104K, the Kd with fluorescein was not below 10000 nM. Besides, the yeast surface expression in data set [1] was determined as 0.557.
As for chain 1 G104V, the Kd in the data set with fluorescein is not below 10000 nM. The yeast surface expression in data set [1] came out at 0.536.
Consider chain 1 T28I W36A, for which the Kd with fluorescein is not below 10000 nM. Further, the yeast surface expression in data set [1] was found to be 0.354.
Take chain 1 G100F W108A: the Kd in the data set with fluorescein was not below 10000 nM. For the same variant, the yeast surface expression in data set [1] stood at 0.671.
The like results for chain 1 Y107C W108V were, in that order, 4.68 nM and 0.304.
On to chain 1 Y32E W33T, for which, in the data set with fluorescein, the Kd is not below 10000 nM. The yeast surface expression in data set [1] was determined as 0.889.
As for chain 1 T28F V37C, the Kd with fluorescein came out at 1.58 nM. The yeast surface expression in data set [1] is 0.588.
The like results for chain 1 T28D F29T W36L were, in that order, not below 10000 nM and 0.514.
Turning to chain 1 W108E G109P, the Kd with fluorescein is not below 10000 nM. Besides, the yeast surface expression in data set [1] was 0.356.
chain 1 W33K W36Y: in the data set with fluorescein, the Kd was not below 10000 nM. Moreover, in data set [1], the yeast surface expression turned out to be 0.396.
For chain 1 Y103S W108R, the Kd with fluorescein is not below 10000 nM. For the same variant, in data set [1], the yeast surface expression was found to be 0.441.
Take chain 1 W36F V37N: the Kd with fluorescein was found to be 7.46 nM. The yeast surface expression in data set [1] was found to be 0.509.
chain 1 W33M W36P: the Kd with fluorescein is not below 10000 nM. In addition, the yeast surface expression in data set [1] was determined as 0.591.
With chain 1 Y107N, the Kd with fluorescein came out at 10.4 nM. Further, the yeast surface expression in data set [1] came out at 0.775.
Take chain 1 Y107W: in the data set with fluorescein, the Kd was 0.846 nM. Besides, the yeast surface expression in data set [1] came out at 1.11.
As for chain 1 Y107Q, the Kd with fluorescein stood at 19.4 nM. The yeast surface expression in data set [1] was 0.757.
chain 1 G104D M105L: the Kd with fluorescein is not below 10000 nM. Besides, the yeast surface expression in data set [1] stood at 1.07.
Consider chain 1 D31K, for which the Kd in the data set with fluorescein was 1.54 nM. In addition, the yeast surface expression in data set [1] is 0.867.
As for chain 1 D31N, the Kd with fluorescein was 0.825 nM. Further, the yeast surface expression in data set [1] amounted to 1.1.
Turning to chain 1 Y103V M105P, in the data set with fluorescein, the Kd was not below 10000 nM. Further, in data set [1], the yeast surface expression is 0.474.
In the case of chain 1 Y32F M34L, the Kd in the data set with fluorescein was found to be 22.1 nM. The yeast surface expression in data set [1] came out at 0.781.
As to chain 1 S101F W108E, the Kd with fluorescein is not below 10000 nM. The yeast surface expression in data set [1] was 0.216.
With chain 1 T28K F29Y, the Kd with fluorescein turned out to be 0.504 nM. Further, the yeast surface expression in data set [1] is 0.984.
The like results for chain 1 F29Y N35H were, in that order, not below 10000 nM and 0.732.
On to chain 1 T28K N35M V37L, for which the Kd in the data set with fluorescein was not below 10000 nM. The yeast surface expression in data set [1] amounted to 0.642.
As to chain 1 G100R Y103D W108G, the Kd with fluorescein is not below 10000 nM. In addition, the yeast surface expression in data set [1] was found to be 0.483.
For the variant chain 1 T28N M34E V37L, in the data set with fluorescein, the Kd was not below 10000 nM. Besides, the yeast surface expression in data set [1] is 0.571.
Regarding chain 1 Y32W W36A, in the data set with fluorescein, the Kd was not below 10000 nM. For the same variant, the yeast surface expression in data set [1] was found to be 0.204.
The like results for chain 1 Y102E M105P were, in that order, not below 10000 nM and 0.839.
chain 1 S30Y D31T: the Kd with fluorescein turned out to be 2.65 nM. Moreover, the yeast surface expression in data set [1] amounted to 0.428.
Turning to chain 1 M105Y, the Kd with fluorescein was 12.9 nM. In addition, the yeast surface expression in data set [1] was 0.866.
The like results for chain 1 M105F were, in that order, 945 nM and 0.745.
